From US20040147436A1

Columns and labels:
[1] = tested on: FVIII derivatives
[2] = tested on: T1, dBN(64-53) FVIII derivative
T1 sequence: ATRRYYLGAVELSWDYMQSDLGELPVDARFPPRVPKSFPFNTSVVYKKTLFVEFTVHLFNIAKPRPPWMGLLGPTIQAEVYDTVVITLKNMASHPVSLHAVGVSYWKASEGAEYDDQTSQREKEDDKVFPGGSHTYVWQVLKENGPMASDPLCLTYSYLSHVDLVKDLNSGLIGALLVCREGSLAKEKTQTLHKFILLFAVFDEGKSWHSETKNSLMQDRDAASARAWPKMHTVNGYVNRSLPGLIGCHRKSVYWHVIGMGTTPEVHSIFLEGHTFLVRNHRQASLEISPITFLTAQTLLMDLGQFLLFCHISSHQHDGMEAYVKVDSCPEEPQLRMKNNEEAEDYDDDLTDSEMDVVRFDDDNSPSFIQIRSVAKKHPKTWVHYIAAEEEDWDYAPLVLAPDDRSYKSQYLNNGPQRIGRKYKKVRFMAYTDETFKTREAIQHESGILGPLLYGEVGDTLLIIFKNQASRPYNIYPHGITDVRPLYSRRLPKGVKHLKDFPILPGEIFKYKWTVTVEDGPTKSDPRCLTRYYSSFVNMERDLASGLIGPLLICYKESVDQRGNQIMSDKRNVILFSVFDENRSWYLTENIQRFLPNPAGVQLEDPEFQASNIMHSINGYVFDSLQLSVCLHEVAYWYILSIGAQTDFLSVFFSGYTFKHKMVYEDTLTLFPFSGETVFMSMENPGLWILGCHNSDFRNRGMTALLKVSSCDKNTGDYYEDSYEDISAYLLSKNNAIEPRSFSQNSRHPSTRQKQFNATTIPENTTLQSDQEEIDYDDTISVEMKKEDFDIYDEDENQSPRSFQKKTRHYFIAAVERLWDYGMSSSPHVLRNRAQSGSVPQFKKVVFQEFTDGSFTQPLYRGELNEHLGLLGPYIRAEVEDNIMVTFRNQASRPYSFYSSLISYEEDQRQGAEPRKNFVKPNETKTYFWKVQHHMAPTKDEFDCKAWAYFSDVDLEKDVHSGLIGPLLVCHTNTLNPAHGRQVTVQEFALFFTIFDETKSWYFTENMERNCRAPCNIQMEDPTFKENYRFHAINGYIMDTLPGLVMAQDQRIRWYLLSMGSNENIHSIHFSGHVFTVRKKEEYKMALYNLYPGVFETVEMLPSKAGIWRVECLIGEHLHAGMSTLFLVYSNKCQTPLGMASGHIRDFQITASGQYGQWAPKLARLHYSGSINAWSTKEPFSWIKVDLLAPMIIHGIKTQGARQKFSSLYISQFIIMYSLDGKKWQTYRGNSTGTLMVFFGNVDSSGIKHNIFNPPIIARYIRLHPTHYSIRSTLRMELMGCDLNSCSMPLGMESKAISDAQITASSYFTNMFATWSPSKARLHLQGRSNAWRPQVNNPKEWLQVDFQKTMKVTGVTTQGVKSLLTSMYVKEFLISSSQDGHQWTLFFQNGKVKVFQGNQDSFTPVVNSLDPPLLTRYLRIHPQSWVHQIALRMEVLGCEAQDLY

[3] = tested on: T2, dBN(64-56) FVIII derivative
T2 sequence: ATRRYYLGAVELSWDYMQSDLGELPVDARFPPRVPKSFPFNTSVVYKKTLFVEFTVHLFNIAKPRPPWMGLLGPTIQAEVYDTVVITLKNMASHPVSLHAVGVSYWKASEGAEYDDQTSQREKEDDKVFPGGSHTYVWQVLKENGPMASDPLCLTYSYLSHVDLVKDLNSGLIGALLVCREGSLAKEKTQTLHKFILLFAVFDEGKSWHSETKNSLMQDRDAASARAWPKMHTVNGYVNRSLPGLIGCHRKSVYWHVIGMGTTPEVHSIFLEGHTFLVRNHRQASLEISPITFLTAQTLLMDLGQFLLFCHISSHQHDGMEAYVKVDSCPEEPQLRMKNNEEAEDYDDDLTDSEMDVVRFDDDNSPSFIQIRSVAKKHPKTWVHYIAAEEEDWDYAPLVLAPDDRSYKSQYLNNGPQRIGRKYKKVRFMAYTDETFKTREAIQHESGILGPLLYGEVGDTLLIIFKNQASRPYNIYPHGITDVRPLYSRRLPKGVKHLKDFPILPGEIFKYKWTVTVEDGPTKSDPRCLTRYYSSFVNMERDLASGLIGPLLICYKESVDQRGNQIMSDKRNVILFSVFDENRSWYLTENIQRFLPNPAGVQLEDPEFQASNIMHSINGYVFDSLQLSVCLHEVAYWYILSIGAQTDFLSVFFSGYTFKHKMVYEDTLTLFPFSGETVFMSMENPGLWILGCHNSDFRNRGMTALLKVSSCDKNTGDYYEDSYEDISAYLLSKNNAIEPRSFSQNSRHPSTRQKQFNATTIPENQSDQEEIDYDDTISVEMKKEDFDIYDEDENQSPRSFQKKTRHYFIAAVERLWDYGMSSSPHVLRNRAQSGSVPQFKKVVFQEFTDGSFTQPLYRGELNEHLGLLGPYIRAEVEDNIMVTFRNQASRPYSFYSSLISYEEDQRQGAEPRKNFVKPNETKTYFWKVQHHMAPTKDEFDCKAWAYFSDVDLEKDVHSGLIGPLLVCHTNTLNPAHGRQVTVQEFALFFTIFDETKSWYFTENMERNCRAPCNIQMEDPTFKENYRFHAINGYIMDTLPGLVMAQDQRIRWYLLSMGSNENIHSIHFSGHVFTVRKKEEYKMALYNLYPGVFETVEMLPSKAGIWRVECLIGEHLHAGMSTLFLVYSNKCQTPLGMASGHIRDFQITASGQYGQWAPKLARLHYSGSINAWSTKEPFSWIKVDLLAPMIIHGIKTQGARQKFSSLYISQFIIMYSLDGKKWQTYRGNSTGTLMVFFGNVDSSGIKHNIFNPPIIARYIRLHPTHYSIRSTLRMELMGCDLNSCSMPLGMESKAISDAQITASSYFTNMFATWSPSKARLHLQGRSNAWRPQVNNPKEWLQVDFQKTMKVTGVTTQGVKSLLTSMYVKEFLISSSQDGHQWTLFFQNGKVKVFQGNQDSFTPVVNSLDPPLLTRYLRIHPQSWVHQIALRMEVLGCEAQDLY

[4] = target: Some FVIII derivatives; assay: cell-based or functional assay

Row | Substance | thrombin cleavage of 35S-labeled immunoprecipitated protein, SDS-PAGE [1] | activation by thrombin, measured in a classical coagulation test (APTT) [2] | activation by thrombin, measured in a classical coagulation test (APTT) [3] | activation by thrombin, measured in a classical coagulation test (APTT) [4] [fold]
1 | thrombin | Analysis of the radiolabeled protein after thrombin digestion indicated a normal appearance of the 73 kD, and 50 and 40 kd fragments | are activated in the same manner as rh FVIII | are activated in the same manner as rh FVIII | –
2 | thrombin (enzyme) | – | – | – | 7
